Experiment [1] has as its target T1, human HVEM (human, UniProt Q92956 39-202, limits assumed).
T1 sequence (looked up): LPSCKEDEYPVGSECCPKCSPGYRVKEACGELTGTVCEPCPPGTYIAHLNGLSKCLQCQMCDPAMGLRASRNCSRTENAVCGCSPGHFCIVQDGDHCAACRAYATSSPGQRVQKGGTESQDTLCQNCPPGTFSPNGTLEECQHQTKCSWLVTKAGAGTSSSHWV
The experiment can be described thus: ELISA.

The target of experiment [2] is T2, cynomolgus monkey HVEM (cynomolgus monkey, UniProt A0A2K5W0R1 39-203).
T2 sequence: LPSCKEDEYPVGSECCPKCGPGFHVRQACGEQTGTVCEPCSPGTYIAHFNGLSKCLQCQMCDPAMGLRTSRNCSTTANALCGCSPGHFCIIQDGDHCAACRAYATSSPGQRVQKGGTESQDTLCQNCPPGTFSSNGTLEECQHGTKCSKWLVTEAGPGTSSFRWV
Description: ELISA. (ELISA stands for enzyme-linked immunosorbent assay.)

Experiment [3] concerns the target T3, His-tagged human HVEM (human, UniProt Q92956 39-202, limits assumed).
T3 construct: Analyte of the BLI assay, 200 nM in PBS; not shown: His tag
T3 sequence (looked up): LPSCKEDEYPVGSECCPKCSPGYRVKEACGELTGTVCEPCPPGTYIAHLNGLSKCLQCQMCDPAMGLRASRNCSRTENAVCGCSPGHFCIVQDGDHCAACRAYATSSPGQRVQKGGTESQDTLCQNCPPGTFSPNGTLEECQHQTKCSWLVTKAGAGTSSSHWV
Description: BLI OctetRed96, mAb captured, 200 nM His-HVEM. Here is the method: Binding of antibodies to HVEM may also be determined by bio-layer interferometry (BLI) on an OctetRed96@ system (Sartorius). (See http://www.fortebio.com/bli_technology.html for general description of a BLI assay.) For this experiment, murine anti-human HVEM antibodies were captured from culture supernatant using anti-mouse IgG Fc capture and immobilized to dip and read biosensors. Sensors were then dipped into a solution of 200 nM His-tagged human HVEM in phosphate-buffered saline (PBS). Probes were dipped into PBS assay buffer and the dissociation rate (koff) was measured. The association rate (kₒₙ) and affinity (KD) were determined by curve fitting analysis.

For experiment [4], the target named is T4, murine HVEM (murine, UniProt Q80WM9 39-206, limits assumed).
T4 construct: also called Mouse
T4 sequence (looked up): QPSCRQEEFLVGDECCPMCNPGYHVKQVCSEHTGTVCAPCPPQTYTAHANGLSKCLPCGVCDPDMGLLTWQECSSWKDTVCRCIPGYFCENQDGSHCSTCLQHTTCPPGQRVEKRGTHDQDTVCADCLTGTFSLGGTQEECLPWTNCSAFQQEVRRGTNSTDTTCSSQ
Description: ELISA.

Broadly, the Kd is the equilibrium constant for the complex coming apart. In general, koff refers to a measure of how fast the partners let go of each other. The kon is a measure of how fast the partners come together.

B1: Ab_022 (H5S14-23A21A) (antibody, V domains shown)
VH: LVKTGASVKISCKASGYSFTGYYMHWVKQSHGKSLEWIGYISCYNGATSYNQKFKGKATFTVDTSSSTAYMQFNSLTSEDSAVYYCARTYYYGSSYGAMDYWGQGTSVTVSS
VL: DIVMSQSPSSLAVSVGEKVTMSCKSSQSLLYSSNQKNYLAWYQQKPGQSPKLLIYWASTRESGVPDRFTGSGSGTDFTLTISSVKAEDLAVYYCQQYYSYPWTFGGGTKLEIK
notes: also called Ab_22
For B1, the figures for the ELISA signal in experiment [1] and in experiment [2] were 0.157 and 0.165, respectively.

B2: Ab_044 (H5S15-30A26A) (antibody, V domains shown)
VH: QVQLQQPGAELVKPGAPVKLSCKASGYTFTSYWMNWVKQRPGRGLEWIGRIDPSDSETHYNQKFKDKATLTVDKSSSTAYIQLSSLTSEDSAVYYCAREYYGNHFDYWGQGTTLTVSS
VL: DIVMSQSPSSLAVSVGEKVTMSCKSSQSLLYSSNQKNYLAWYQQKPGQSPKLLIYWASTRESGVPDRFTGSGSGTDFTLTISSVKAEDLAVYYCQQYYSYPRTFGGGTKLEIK
notes: also called Ab_44
In experiment [1], B2 showed an ELISA signal of 2.87. In experiment [3], this molecule came in with a Kd of 1.97 nM, a koff of 0.00605 s⁻¹ and a kon of 3.08e+06 M⁻¹ s⁻¹.

B3: Ab_059 (H5S19-3B10B) (antibody, V domains shown)
VH: QIQLVQSGPELKKPGETVKISCKASGYTFTNFGVNWVKQAPGKGLKWMGWINTYTGEPTYADDFKGRFAFSLETSASTAYLRINNLKNEDTATYFCARSFYKNYAFWGQGTILTVSS
VL: QIVLTQSPAIMSASPGEKVTLTCSASSSVDSSYLFWYQQKPGSSPKLWIYSTSNLASGVPARFSGSGSGTSYSLTISSMEAEDAASYFCHQWSSYPWTFGGGTILEI
notes: also called Ab_59
On to B3, for which the results for the ELISA signal in experiment [4] and in experiment [1] were 0.043 and 0.462, respectively.

B4: Ab_015 (H5S14-16A13A) (antibody, V domains shown)
VH: EVQLVESGGGLVKPGGSLKLSCAASGFTFSDYYMYWVRQTPEKRLEWVATISDGGSYTYYPDSVKGRFTISRDNAKNNLYLQMSSLKSEDTAMYYCARDGNYYAMDYWGQGTSVTVSS
VL: DVLMTQTPLSLPVSLGDQASISCRSSQSIVHSNGNTYLEWYLQKPGQSPKLLIYKVSNRFSGVPDRFSGSGSGTDFTLKISRVEAEDLGVYYCFQGSHVPWTFGGGTKLEIK
notes: also called Ab_15
For the molecule B4, the ELISA signal in experiment [4] was found to be 0.042; in experiment [1] it was 0.045; in experiment [2], 0.058.

B5: Ab_057 (H5S19-5A7A) (antibody, V domains shown)
VH: DVKLVESGGGLVKPGGSLKLSCAASGFTFSSYTMSWVRQTPEKRLEWVATISSGGSYTYYPDSVKGRFTISRDNAKNTLYLQMSSLKSEDTAMYYCTRGDDYGFDYWGQGTTLTVSS
VL: DVLMTQTPLSLPVSLGDQASISCRSSQSIVHSNGNTYLEWYLQKPGQSPKLLIYKVSNRFSGVPDRFSGSGSGTDFTLKISRVEAEDLGVYYCFQGSHVPWTFGGGTKLEIK
notes: also called Ab_57
In the case of B5, the ELISA signal in experiment [4] worked out at 0.045; in experiment [2], 1.06.

B6: Ab_056 (H5S19-11A9B) (antibody, V domains shown)
VH: DVQLQESGPGLVNPSQSLSLTCTVTGYSITSDYAWNWIRQFPGNKLEWMGYISYSGNTGYNPSLKSRISITRDTSKNQFFLQLNSVTSEDTATYYCARWGLRIDYWGQGTTLTVSS
VL: DIKMTQSPSSMYASLGESVTITCKASQDINSYLSWFQQKPGKSPKTLIYRANRLVDGVPSRFSGSGSGQDYSLTISSLEFEDMGIYYCLQYDEFPFTFGSGTKLEMK
notes: also called Ab_56
For the molecule B6, the ELISA signal came to 0.043 in experiment [4] and 0.06 in experiment [2].

B7: Ab_086 (H5S20-56A25A) (antibody, V domains shown)
VH: EVKLVESGGGLVKPGGSLKLSCAASGFTFSSYGMSWVRQTPEKRLEWVATISGGGSYTFYPDSVKGRFTISRDNAKNNLYLQVSSLRSEDTALYYCIYDGSYWGQGTLVTVSA
VL: not shown
notes: also called Ab_86
B7: the ELISA signal in experiment [4] was 0.044; in experiment [2], 0.065.

B8: Ab_007 (H5S14-6A6A) (antibody, V domains shown)
VH: EVKLVESGGGLVQPGGSLRLSCATSGFTFTDYYMSWVRQTPGKALEWLGFIRNQANAYTTEYSVSVKGRFTISRDNSQSILYLQMNTLRVEDSATYYCARVPDYWGQGTTLTVSS
VL: DIQMTQSPASQSASLGESVTITCLASQTIGTWLAWYQQKPGKSPQLLIYAATSLADGVPSRFSGSGSGTKFSFKISSLQAEDFVSYYCQQLHSTPYTFGGGTKLEIK
notes: also called Ab_7
B8: the ELISA signal in experiment [4] stood at 0.042; in experiment [1], 2.56; in experiment [2], 0.739.

B9: Ab_084 (H5S20-51A40A) (antibody, V domains shown)
VH: QVQLKQSGPGLVQPSQSLSITCTVSGFSLTSYGVHWVRQSPGKGLEWLGVIWRGGSTDYNAAFMSRLSITKDNSKSQVFFKMNSLQADDTAIYYCAKNRGYGEGYYAMDYWGQGTSVTVSS
VL: DIVMTQSQKFMSTSVGDRVSVTCKASQNVGTNVAWYQQKPGQSPKALIYSASYRYSGVPDRFTGSGSGTDFTLTISNVQSEDLAEYFCQQYNSYPLTFGAGTKLELK
notes: also called Ab_84
For B9, the results for the ELISA signal in experiment [4] and in experiment [2] were 0.043 and 0.061, respectively.

B10: Ab_002 (H5S14-2A2A) (antibody, V domains shown)
VH: QVQLQQPGAELVKPGTSVKMSCKASGYTFTSYWMHWVKQRPGQGLEWIGDIYPGSDSTNYNEKFKSKATLTVDTSSSTAYMQLSSLTSEDSAVYYCARSGYYGSYLDYWGQGTTLTVSS
VL: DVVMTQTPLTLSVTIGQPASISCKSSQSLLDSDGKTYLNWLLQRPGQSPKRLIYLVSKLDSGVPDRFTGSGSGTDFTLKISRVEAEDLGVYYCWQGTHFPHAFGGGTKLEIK
notes: also called Ab_2
Consider B10, for which the ELISA signal stood at 0.043 in experiment [4], 2.8 in experiment [1] and 1.98 in experiment [2].

B11: Ab_018 (H5S14-21A19A) (antibody, V domains shown)
VH: QVQLQQPGSELVRPGASVKLSCKASGYTFTSYWMHWVKQRPGQGLEWIGNIYPGSGSTNYDEKFKSKATLTVDTSSSTAYMQLSSLTSEDSAVYYCTIYDGYYWGQGTLVTVSA
VL: DIQMTQSPASLSVSVGETVTITCRASENIYSNLAWYQQKQGKSPQLLVYAATNLADGVPSRFSGSGSGTQYSLKINSLQSEDFGSYYCQHFWGTPRTFGGGTKLEIK
notes: the values of that row are written under this molecule; also called Ab_18; Ab_018 and Ab_019
Take B11: the ELISA signal is 0.043 in experiment [4] and 0.059 in experiment [2].

B12: Ab_049 (H5S19-25A24A) (antibody, V domains shown)
VH: QVQLQQSGAELMKPGASVKISCKATGYTFSSYWIEWVKQRPGHGLEWIGEILPGSGSTNYNEKFKGKATFTADTSSNTAYMQLSSLTSEDSAVYYCARYPRWGKIDYWGQGTTLTVSS
VL: DIVMTQAAFSNPVTLGTSASISCRSSKSLLHSNGITYLYWYLQKPGQSPQLLIYQMSNLASGVPDRFSSSGSGTDFTLRISRVEAEDVGVYYCAQNLELPYTFGGGTKLEIK
notes: also called Ab_49
As to B12, the ELISA signal worked out at 0.044 in experiment [4] and 0.065 in experiment [2].

B13: Ab_014 (H5S14-15A12A) (antibody, V domains shown)
VH: QVQLKQSGPGLVQPSQSLSITCTVSGFSLTSYGVHWVRQSPGKGLEWLGVIWSGGSTDYNAAFICRLSISKDSSKSQVFFKMNSLQADDTAMYYCARNLGGSWVDYWGQGTSVTVSS
VL: ETTVTQSPASLSVATGEKVTIRCITSTDIDDDMNWYQQKPGEPPKLLISEGNTLRPGVPSRFSSSGYGTDFVFTIENTLSEDVADYYCLQSDNMPYTFGGGTKLEIK
notes: also called Ab_14
Take B13: the ELISA signal in experiment [4] was found to be 0.049; in experiment [1] it was 0.05; in experiment [2] it was 0.064.

B14: Ab_003 (H5S14-3A3A) (antibody, V domains shown)
VH: QIQLVQSGPELKKPGETVKISCKASGYTFTNYGVNWVKQAPGKDLKWMGWINTYTGEPTYADDFKGRFAFSLETSASTAYLQINNLKNEDMATYFCTSRSWVLWGQGTLVTVSA
VL: QIVLTQSPAIMSASLGEEITLTCSASSSVSYMQWYQQKSGTSPKLLIYSTSNLASGVPSRFSGSGSGTFYSLTISSVEAEDAADYYCHQWSSYPTFGGGTELEI
notes: also called Ab_3
In the case of B14, the ELISA signal came out at 0.051 in experiment [4] and 2.29 in experiment [2].

B15: Ab_020 (H5S14-22A20A) (antibody, V domains shown)
VH: EVQLQQSGPELVKPGASVKMSCKASGYTFTSYVMHWVKQKPGQGLEWIGYINPYNDGTKYNEKFKGKATLTSDKSSSTAYMELSSLTSEDSAVYYCARGIITTVIEPILYAMDYWGQGTSVTVSS
VL: NIVLTQSPASLAVSLGQRATISCRASESVDSYGNSFMHWYQQKPGQPPKLLIYLASNLESGVPARFSGSGSRTDFTLTIDPVEADDAATYYCQQNNEDPYTFGGGTKLEIK
notes: also called Ab_20
As for B15, the ELISA signal came to 0.043 in experiment [4], 0.049 in experiment [1] and 0.064 in experiment [2].

B16: Ab_016 (H5S14-17A15A) (antibody, V domains shown)
VH: QVQLQQSGAELVRPGTSVKMSCKAAGYTFTNYWIGWVKQRPGHGLEWIGDIYPGGGYTNYNEKFKGKATLTADTSSSTAYMQLSSLTSEDSAIYYCARNGNSLDYWGQGTTLTVSS
VL: SIVMTQTPKFLLVSAGDRVTITCKASQSVSNDVAWYQQKPGQSPKLLIYYESNRYTGVPDRFTGSGYGTDFTFTISTVQAEDLAVYFCQQDYSSPWTFGGGTKLEIK
notes: also called Ab_16
Take B16: the ELISA signal in experiment [4] was found to be 0.042; in experiment [1] it was 0.047; in experiment [2] it was 0.061.

B17: Ab_017 (H5S14-18A16A) (antibody, V domains shown)
VH: EVQLVETGGGLVQPKGSLKLSCAASGFTFNTNAMNWVRQAPGKGLEWVARIRSKSNNYATYYADSVKDRFTISRDDSQSMLYLQMNNLKTEDTAMYYCVREGGYGNYPYFDYWGQGTTLTVSS
VL: SIVMTQTPKFLLVSAGDRVTITCKASQSVSNDVAWYQQKPGQSPKLLIYYASNRYTGVPDRFTGSGYGTDFTFTISTVQAEDLAVYFCQQDYSSPWTFGGGTKLEIK
notes: also called Ab_17
For B17, the figures for the ELISA signal in experiment [4], in experiment [1] and in experiment [2] were 0.044, 0.051 and 0.06, respectively.

For the origin of these results see US20240317871A1 (IMMUNOMIC THERAPEUTICS, published 2024).
